Test results reported in the supplement of paper PMC10567573.
± gives the standard deviation.

Experiment: protein stability index of a GFP-peptide fusion (GPS, HEK-293T) (PSI 1-6); higher = more stable
[1] = treatment: DMSO, c terminus: a fixed tail appended
[2] = treatment: MLN4924 1 uM, 8 h, c terminus: a fixed tail appended
[3] = treatment: DMSO, c terminus: native
[4] = treatment: MLN4924 1 uM, 8 h, c terminus: native
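Note: 24-mer peptide tiles fused after GFP, lentivirally expressed, FACS-sorted into six equal bins by GFP/DsRed ratio, decoded by Illumina sequencing, PSI is the read-weighted mean bin number.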

Row | Sequence | protein stability index [1] | protein stability index [2] | protein stability index [3] | protein stability index [4]
1 | AAHLALLLLCGTISLRVYRKVLQA [RTN2] | 2.49 ± 0.33 | 2.51 ± 0.73 | – | –
2 | AALRLHRLLRDSEAFCHANCSGPA [P3H4] | 2.1 ± 0.1 | 2.27 ± 0.27 | – | –
3 | AALSEENTGKTYFFVANKYWRYDE [MMP1] | 2.49 ± 0.37 | 2.21 ± 0.18 | – | –
4 | AALTEALQRQAEQNPTASYYNVVL [FCHO1] | 2.3 ± 0.33 | 2.21 ± 0.33 | – | –
5 | AAVLQYASLVGQKCSERMLLFRN [ATE1] | – | – | 2.38 ± 0.043 | 2.27 ± 0.33
6 | ADAISENYRIMSYFKEAELKDLLL [WEE1] | 2.61 ± 0.22 | 2.72 ± 0.54 | – | –
7 | ADGAWVVKMFYSFQDKRNLYLIME [STK38L] | 3.11 ± 1 | 2.99 ± 0.79 | – | –
8 | ADKYALERLKVMCEEALCSNLSVE [SPOPL] | 3.56 ± 0.18 | 3.62 ± 0.18 | – | –
9 | ADQRSRMLSIFYFAIPVGSGLGYI [SPNS1] | 2.44 ± 0.52 | 2.26 ± 0.31 | – | –
10 | ADVWSLGVMLYTLLVGRYPFHDSD [TRIB1] | 3.15 ± 0.26 | 2.58 ± 0.26 | – | –
11 | AEFEKLSDQVKISEEALRADGFGD [SAT2] | 5.33 ± 0.11 | 5.45 ± 0.15 | – | –
12 | AEGSNSESSDDDSEEAPSTSGMGF [SDE2] | 5.37 ± 0.15 | 5.26 ± 0.36 | – | –
13 | AEIPDGPPVVAHYDMSDTNSDPEV [C18orf25] | 5.65 ± 0.21 | 5.48 ± 0.23 | – | –
14 | AEPGFEPADCKRKEEAGAPGGGAG [CEBPB] | 5.48 ± 0.47 | 5.56 ± 0.15 | – | –
15 | AESRGHSKGWGRNYASIIRRDCMW [MYCL] | 2.23 ± 0.2 | 2.61 ± 0.39 | – | –
16 | AFMLFRKRLGSMILAFRPRPNYF [GDAP1] | – | – | 2.5 ± 0.53 | 2.12 ± 0.47
17 | AFSSRLGGSRGAPGLLMAVGQDLY [DCAF4] | 2.19 ± 0.48 | 2.15 ± 0.38 | – | –
18 | AGAFGYFQQDTKGLVDFRDVALAL [LPCAT4] | 1.98 ± 0.18 | 2.12 ± 0.18 | – | –
19 | AGAPPPSGSAVSTAPQQKPIGKIS [SRPK2] | 5.01 ± 0.26 | 5.04 ± 0.24 | – | –
20 | AGLAELGHRLAQKLQGLENWGQDP [PBXIP1] | 2.79 ± 0.17 | 2.85 ± 0.33 | – | –
21 | AIIASLTFLYTLLREVIHPLATSH [STEAP1] | 3.25 ± 0.34 | 2.89 ± 0.39 | – | –
22 | AKLVDLPCVIESLRTLDKKTFYKT [TAF7L] | 2.52 ± 0.47 | 2.18 ± 0.42 | – | –
23 | ALARNLLVDGETGESFPAQVPSGE [NFE2L1] | 4.79 ± 0.45 | 4.5 ± 0.61 | – | –

Row | Sequence | protein stability index [1] | protein stability index [2] | protein stability index [3] | protein stability index [4]
24 | ALCENFPEEMATYLRYVRRLDFFE [CSNK1G1] | 2.21 ± 0.73 | 2.26 ± 0.26 | – | –
25 | ALQVPRGKEDSTLQLLREENRALQ [CBY2] | 4.13 ± 0.25 | 4.23 ± 0.084 | – | –
26 | ALRLAELARRRRRRQARREAEADK [NOP53] | 4.12 ± 0.21 | 4.37 ± 0.82 | – | –
27 | ALVGDEVELPCRISPGKNATGMEV [MOG] | 4.03 ± 0.22 | 4.23 ± 0.26 | – | –
28 | AMEPDRKAAVSHWQQQSYLDSGIH [CTNNB1] | 3.91 ± 0.31 | 3.95 ± 0.32 | – | –
29 | ANDYKDTLGKGSSLSAPSKKTSR [KRT71] | – | – | 5.26 ± 0.32 | 5.12 ± 0.47
30 | APATTSSWEVVRNPLIASSFSLVK [C22orf31] | 2.91 ± 0.24 | 2.96 ± 0.1 | – | –
31 | APVTFRHHRYDDLVRTLYKVQNEC [CPN1] | 2.62 ± 0.065 | 2.83 ± 0.12 | – | –
32 | AQDLGELLATAEQEQLSLSQRQAK [LRRC45] | 5.25 ± 0.3 | 5.34 ± 0.058 | – | –
33 | AQPPDYTFPSGSGAHFPQVPGGAV [PI4K2A] | 3.93 ± 0.19 | 4.01 ± 0.12 | – | –
34 | ARERAKLQIELGKCKAEHDQLLLN [LMNB1] | 3.47 ± 0.098 | 3.14 ± 0.1 | – | –
35 | ARKARKYEIPHFRLKKVENIKIWL [PHTF1] | 2.09 ± 0.83 | 1.96 ± 0.46 | – | –
36 | ARMLSSNERDSSEPGNFIPLFTPQ [CDC25A] | 3.85 ± 0.25 | 3.96 ± 0.4 | – | –
37 | ASAPTYPSLYSSYHQGCLVNPTGN [NANOGP8] | 3.29 ± 0.19 | 3.44 ± 0.17 | – | –
38 | ASASCSHWRECLFYPALWPQLRIC [FBXO33] | 2.44 ± 0.53 | 2.23 ± 0.39 | – | –
39 | ASHCLMNHPDLAKDLTEYLKVRSH [PDS5B] | 3.05 ± 0.27 | 3.01 ± 0.18 | – | –
40 | ATKITLSAIYKWITDNFCYFRHAD [FOXJ1] | 3 ± 0.21 | 2.77 ± 0.49 | – | –
41 | AVNNGDFEAYAKICDPGLTSFEPE [CAMK2B] | 4.35 ± 0.27 | 4.38 ± 0.14 | – | –
42 | AVVHEYALAVCLSFFYPVLFVLFM [SOAT1] | 3.29 ± 0.42 | 3.02 ± 0.21 | – | –
43 | AVVNELIDYGANVNQPNNNGFTPL [ANKRD44] | 3.05 ± 0.2 | 3.21 ± 0.17 | – | –
44 | AVYDGSSSVEDLKAKFCSTVANDV [NETO1] | 4.03 ± 0.19 | 4.17 ± 0.31 | – | –
45 | AWQYGPCTGITRLQRWCRAKHMGL [POLD4] | 2.15 ± 0.12 | 2.3 ± 0.42 | – | –
46 | AYCLDQGAEDGDRAILYPCHGMSS [GALNT9] | 3.67 ± 0.29 | 3.69 ± 0.11 | – | –

Row | Sequence | protein stability index [1] | protein stability index [2] | protein stability index [3] | protein stability index [4]
47 | AYFAGNQKQLEQTLQQFNIKLRPP [ARFIP2] | 2.63 ± 0.16 | 2.76 ± 0.29 | – | –
48 | AYRCGSGMQMAEDSKSLKTHQTQP [NET1] | 3.94 ± 0.16 | 3.22 ± 0.25 | – | –
49 | CATTNASGNSCGPCGTSQKGCCN [KRT34] | – | – | 3.78 ± 0.17 | 3.66 ± 0.31
50 | CAVLLSAVQAQAGWLQHDFGHLSV [FADS1] | 3.25 ± 0.5 | 3.3 ± 0.65 | – | –
51 | CCHRSQKGFPGCKLGLHDNHWVPA [FBXO34] | 2.2 ± 0.39 | 2.16 ± 0.34 | – | –
52 | CFRMQINHAIDIICGFLKERCFRG [OAS1] | 2.44 ± 0.66 | 2.61 ± 0.36 | – | –
53 | CFYRGYTSGVAAVQDWYHFHYVDI [SCNN1D] | 3.06 ± 0.86 | 2.92 ± 0.75 | – | –
54 | CGADVNVRDSDDNSPLHIAALNNH [FEM1C] | 2.9 ± 0.34 | 2.83 ± 0.24 | – | –
55 | CGGSGGGGGGGGGGGGCSSGSSYC [LURAP1L] | 3.28 ± 0.46 | 3.22 ± 0.22 | – | –
56 | CIGLQNLKLLDELPIAKVMKDYLK [ASB7] | 2.11 ± 0.28 | 2.27 ± 0.39 | – | –
57 | CIHTGLSQYIAVEAAEGRNKNEVF [FBXO3] | 3.38 ± 0.49 | 3.48 ± 0.19 | – | –
58 | CLLQPPSCPNGMSAENGLEKSGFS [DLC1] | 3.99 ± 0.14 | 3.44 ± 0.8 | – | –
59 | CLPLTFCIHTGLSQYIAVEAAEGR [FBXO3] | 2.96 ± 0.72 | 2.4 ± 0.93 | – | –
60 | CLTLTPRPATEAELLTCHSAEYVG [HDAC6] | 3.48 ± 0.16 | 3.43 ± 0.16 | – | –
61 | CNVDLLKIIQLGLTFMNEQGEYPP [CNOT7] | 2.96 ± 1.3 | 2.48 ± 0.18 | – | –
62 | CPIDQHHRNQCQYCRLKKCLKVGM [NR2F2] | 2.97 ± 0.038 | 3.36 ± 0.36 | – | –
63 | CSISKMEEEAGQTSIEPSKSSIIP [ZER1] | 4.59 ± 0.28 | 4.53 ± 0.2 | – | –
64 | CSSRPLQKGSHPMCKEHEDEKINI [TRIM63] | 4.81 ± 0.093 | 4.84 ± 0.24 | – | –
65 | CTSRIFVQKSIYSEFLKRFVEATR [ALDH8A1] | 2.36 ± 0.52 | 2.34 ± 0.5 | – | –
66 | CYTFSVLITFDNKAHSGRIPISLE [MCOLN1] | 3.58 ± 0.41 | 3.3 ± 0.62 | – | –
67 | DAIGEGKVTLRIRNVRFSDEGGFT [MOG] | 2.88 ± 0.35 | 2.84 ± 0.44 | – | –
68 | DDILYHVKGMQRIVNQWSEKFSDE [DLC1] | 3.52 ± 0.14 | 3.75 ± 0.28 | – | –
69 | DDKMVRFWRIDEDYPVQVAPLSNG [WSB1] | 3.37 ± 0.34 | 3.45 ± 0.33 | – | –

Row | Sequence | protein stability index [1] | protein stability index [2] | protein stability index [3] | protein stability index [4]
70 | DDLQQLQLFTEYGRLAMDEIFQKP [ATL3] | 3.31 ± 0.26 | 3.57 ± 0.21 | – | –
71 | DEEQQVLLSRLEEEEQDILQRLRE [TRIM39] | 5.27 ± 0.098 | 5.28 ± 0.33 | – | –
72 | DESAIDFSAYIDSMAAVPTLELCH [CEBPD] | 3.17 ± 0.26 | 3.31 ± 0.17 | – | –
73 | DFHQGLLSFYNARTKQVLHTFKTR [FSD1] | 2.2 ± 0.16 | 2.28 ± 0.31 | – | –
74 | DGMRNKETLEGREKAFIAHFQDNL [MED27] | 4.35 ± 0.17 | 4.2 ± 0.17 | – | –
75 | DGNSLLSSIECYDPIIDSWEVVTS [KLHL12] | 3.29 ± 0.33 | 3.47 ± 0.47 | – | –
76 | DGSKSLGEENFEVVKQFVTGIIDS [MATN2] | 4.38 ± 0.13 | 4.33 ± 0.27 | – | –
77 | DGVPHLILIASRDIAAGEELLYDY [KMT5A] | 1.98 ± 0.31 | 2.13 ± 0.099 | – | –
78 | DHDPTIEDAYKIRIRIDDEPANLD [RIT1] | 4.86 ± 0.19 | 4.84 ± 0.21 | – | –
79 | DIKQLIAKKIKLTAEAEELKPFFM [SOAT1] | 2.59 ± 0.59 | 2.15 ± 0.1 | – | –
80 | DIQIVERKKSADVLALADEAGYYF [ADAMTSL2] | 3.08 ± 0.23 | 3.39 ± 0.2 | – | –
81 | DKDCSLDCAGSPQKPLCASDGRTF [SMOC2] | 4.68 ± 0.39 | 4.76 ± 0.34 | – | –
82 | DKLEYLDEKQRDPRIEASKVLLCH [NET1] | 4.09 ± 0.22 | 4.08 ± 0.19 | – | –
83 | DKMEAYNIDETCGRHHSQSTEVQA [TEKT4] | 4.91 ± 0.19 | 4.9 ± 0.17 | – | –
84 | DKWFRKIKDHFCPFENQFHTEIQI [C8orf76] | 2.2 ± 0.54 | 2.32 ± 0.42 | – | –
85 | DLETHRLPCTSRCPRPCRESAFKL [SCNN1D] | 2.41 ± 0.21 | 2.44 ± 0.063 | – | –
86 | DLLNVCMRHVEKMCKADLSRNFIE [TRIM29] | 3.09 ± 0.21 | 2.87 ± 0.28 | – | –
87 | DLLPTFRHTLQKLTCEFNNNHESL [FBXO39] | 2.27 ± 0.22 | 2.35 ± 0.48 | – | –
88 | DLQVNRNFSLATNTKYSVYIYVYF [R3HDM1] | 2.59 ± 0.59 | 2.88 ± 0.078 | – | –
89 | DLRGVCVSGKCEPIGCDGVLFSTH [ADAMTSL2] | 2.4 ± 0.091 | 2.75 ± 0.59 | – | –
